Biological target: EGFR on U87MG.de2-7 cells (UniProt P00533)
Test: flow cytometry on U87MG.de2-7 cells, Alexa Fluor 488 anti-human IgG Fc

B1: DB001 DVD-Ig (CD3 and EGFR) (bispecific antibody)
VH: QVQLQESGPGLVKPSQTLSLTCTVSGYSISSDFAWNWIRQPPGKGLEWMGYISYSGNTRYQPSLKSRITISRDTSKNQFFLKLNSVTAADTATYYCVTAGRGFPYWGQGTLVTVSSASTKGPEVQLVESGGGLVQPGGSLRLSCAASGFTFSTYAMNWVRQAPGKGLEWVGRIRSKYNNYATYYADSVKDRFTISRDDSKNTAYLQMNSLRAEDTAVYYCTRHGNFGNSYVSWFAYWGQGTLVTVSS
VL: DIQMTQSPSSMSVSVGDRVTITCHSSQDINSNIGWLQQKPGKSFKGLIYHGTNLDDGVPSRFSGSGSGTDYTLTISSLQPEDFATYYCVQYAQFPWTFGGGTKLEIKTVAAPSVFIFPPDAQVTQSPSSLSASVGDRVTITCRSSTGAVTTSNYANWVQEKPGKLFKGLIGGTNKRAPGVPSRFSGSGSGTDATLTISSLQPEDFATYFCALWYSNLWVFGGGTKVEIKR
EC50: 9 nM

Reference: patent US20140221622A1
